# Measured values reported in the supplement of paper PMC9112550, “Optimization of the antimicrobial peptide Bac7 by deep mutational scanning” (BMC Biology, 2022).
# System: Escherichia coli TOP10
# Test: shrunken log2 fold change of peptide-encoding DNA abundance (4.5 h post-induction vs induction); higher = less antimicrobial activity (less host growth inhibition)
# Conditions: time post-induction: 4.5 h; library: site-saturation at positions 5, 18, 19, 20
# 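Also: peptides expressed intracellularly from a pBAD plasmid library in pooled LB shake-flask culture, induced with 0.3% L-arabinose, DNA abundance read by NGS, three biological replicates, DESeq2 with apeglm shrinkage.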
row,Sequence,shrunken log2 fold change
1,RRIRRRPPRLPRPRPRPYPVPRP,0.0514
2,RRIRRRPPRLPRPRPRPYQRPRP,-0.0429
3,RRIRRRPPRLPRPRPRPYSAPRP,-0.137
4,RRIRRRPPRLPRPRPRPYSCPRP,-0.0958
5,RRIRRRPPRLPRPRPRPYTKPRP,-0.284
6,RRIRRRPPRLPRPRPRPYWLPRP,-0.578
7,RRIRRRPPRLPRPRPRPYYFPRP,-0.139
8,RRIRSRPPRLPRPRPRPAALPRP,-0.0411
9,RRIRSRPPRLPRPRPRPACIPRP,-0.31
10,RRIRSRPPRLPRPRPRPACPPRP,0.413
11,RRIRSRPPRLPRPRPRPADCPRP,0.0938
12,RRIRSRPPRLPRPRPRPADTPRP,-0.0432
13,RRIRSRPPRLPRPRPRPAFYPRP,-0.166
14,RRIRSRPPRLPRPRPRPAHHPRP,0.048
15,RRIRSRPPRLPRPRPRPAHVPRP,-0.0302
16,RRIRSRPPRLPRPRPRPAIWPRP,0.463
17,RRIRSRPPRLPRPRPRPAKFPRP,-0.134
18,RRIRSRPPRLPRPRPRPALDPRP,0.137
19,RRIRSRPPRLPRPRPRPAMAPRP,1.64
20,RRIRSRPPRLPRPRPRPAPFPRP,0.201
21,RRIRSRPPRLPRPRPRPAPIPRP,0.133
22,RRIRSRPPRLPRPRPRPAPQPRP,0.461
23,RRIRSRPPRLPRPRPRPAQLPRP,-0.142
24,RRIRSRPPRLPRPRPRPASPPRP,-0.0809
25,RRIRSRPPRLPRPRPRPATCPRP,-0.154

row,Sequence,shrunken log2 fold change
1,RRIRSRPPRLPRPRPRPATIPRP,0.115
2,RRIRSRPPRLPRPRPRPATSPRP,0.0483
3,RRIRSRPPRLPRPRPRPATYPRP,-0.429
4,RRIRSRPPRLPRPRPRPAVMPRP,0.139
5,RRIRSRPPRLPRPRPRPAYDPRP,-0.477
6,RRIRSRPPRLPRPRPRPCEIPRP,-0.0377
7,RRIRSRPPRLPRPRPRPCEQPRP,0.000312
8,RRIRSRPPRLPRPRPRPCFDPRP,0.11
9,RRIRSRPPRLPRPRPRPCFGPRP,-0.217
10,RRIRSRPPRLPRPRPRPCFIPRP,-0.688
11,RRIRSRPPRLPRPRPRPCFYPRP,-0.39
12,RRIRSRPPRLPRPRPRPCGTPRP,0.202
13,RRIRSRPPRLPRPRPRPCHMPRP,-0.233
14,RRIRSRPPRLPRPRPRPCITPRP,-0.185
15,RRIRSRPPRLPRPRPRPCKGPRP,-0.3
16,RRIRSRPPRLPRPRPRPCKMPRP,-0.215
17,RRIRSRPPRLPRPRPRPCKSPRP,0.00889
18,RRIRSRPPRLPRPRPRPCLFPRP,-0.193
19,RRIRSRPPRLPRPRPRPCMHPRP,-0.514
20,RRIRSRPPRLPRPRPRPCNCPRP,0.0508
21,RRIRSRPPRLPRPRPRPCNQPRP,-0.391
22,RRIRSRPPRLPRPRPRPCNWPRP,-0.128
23,RRIRSRPPRLPRPRPRPCPGPRP,-0.234
24,RRIRSRPPRLPRPRPRPCPLPRP,-0.823
25,RRIRSRPPRLPRPRPRPCPNPRP,-0.209

row,Sequence,shrunken log2 fold change
1,RRIRSRPPRLPRPRPRPCPQPRP,0.0538
2,RRIRSRPPRLPRPRPRPCPSPRP,0.0411
3,RRIRSRPPRLPRPRPRPCRWPRP,0.0467
4,RRIRSRPPRLPRPRPRPCVIPRP,-0.172
5,RRIRSRPPRLPRPRPRPCVKPRP,-0.414
6,RRIRSRPPRLPRPRPRPCVWPRP,0.8
7,RRIRSRPPRLPRPRPRPCWTPRP,-0.306
8,RRIRSRPPRLPRPRPRPCYMPRP,-0.562
9,RRIRSRPPRLPRPRPRPCYRPRP,0.0109
10,RRIRSRPPRLPRPRPRPDCCPRP,0.227
11,RRIRSRPPRLPRPRPRPDCHPRP,-0.0994
12,RRIRSRPPRLPRPRPRPDDNPRP,0.00575
13,RRIRSRPPRLPRPRPRPDEIPRP,0.139
14,RRIRSRPPRLPRPRPRPDETPRP,-0.0257
15,RRIRSRPPRLPRPRPRPDFSPRP,0.0706
16,RRIRSRPPRLPRPRPRPDGSPRP,-0.0196
17,RRIRSRPPRLPRPRPRPDHEPRP,-0.0462
18,RRIRSRPPRLPRPRPRPDISPRP,-0.0675
19,RRIRSRPPRLPRPRPRPDLSPRP,0.101
20,RRIRSRPPRLPRPRPRPDMAPRP,-0.0366
21,RRIRSRPPRLPRPRPRPDMCPRP,0.0552
22,RRIRSRPPRLPRPRPRPDNIPRP,-0.347
23,RRIRSRPPRLPRPRPRPDNPPRP,-0.0934
24,RRIRSRPPRLPRPRPRPDPAPRP,0.45
25,RRIRSRPPRLPRPRPRPDQQPRP,0.0193
